Laboratory results published in US20240067690A1.
Read-outs that look alike come from different tables or passages of the source.

How the values were obtained:
Test in all cases: cell-based or functional assay
[1] = molecular target: high affinity (IL2Ra/b/g) IL2 receptor on YT/STAT5-Luc/hIL2Ra reporter cells (human; human (human T/NK cell leukemia YT cell line)) (UniProt P01589)
[2] = molecular target: low affinity (IL2Rb/g) IL2 receptor on YT/STAT5-Luc/IL2Ra KO reporter cells (human (human T/NK cell leukemia YT cell line)) (UniProt P14784)
Chain of UniProt P14784 (P14784 27-551, chain 1 of 2): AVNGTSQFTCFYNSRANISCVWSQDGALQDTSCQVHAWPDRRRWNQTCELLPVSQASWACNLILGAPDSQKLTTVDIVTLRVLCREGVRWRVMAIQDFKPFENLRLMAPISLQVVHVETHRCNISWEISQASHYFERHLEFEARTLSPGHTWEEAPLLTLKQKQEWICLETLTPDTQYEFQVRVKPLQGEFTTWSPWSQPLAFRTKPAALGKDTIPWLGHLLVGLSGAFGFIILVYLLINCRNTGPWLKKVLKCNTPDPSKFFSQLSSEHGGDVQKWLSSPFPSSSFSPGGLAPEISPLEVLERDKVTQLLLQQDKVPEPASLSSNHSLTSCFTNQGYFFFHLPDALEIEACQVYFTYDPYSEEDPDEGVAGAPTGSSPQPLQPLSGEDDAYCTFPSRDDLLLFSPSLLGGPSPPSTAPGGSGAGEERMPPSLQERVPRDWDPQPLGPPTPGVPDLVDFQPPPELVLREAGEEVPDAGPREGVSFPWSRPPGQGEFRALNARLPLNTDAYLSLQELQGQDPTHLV
Chain of UniProt P14784 (P31785 23-369, chain 2 of 2, further chain): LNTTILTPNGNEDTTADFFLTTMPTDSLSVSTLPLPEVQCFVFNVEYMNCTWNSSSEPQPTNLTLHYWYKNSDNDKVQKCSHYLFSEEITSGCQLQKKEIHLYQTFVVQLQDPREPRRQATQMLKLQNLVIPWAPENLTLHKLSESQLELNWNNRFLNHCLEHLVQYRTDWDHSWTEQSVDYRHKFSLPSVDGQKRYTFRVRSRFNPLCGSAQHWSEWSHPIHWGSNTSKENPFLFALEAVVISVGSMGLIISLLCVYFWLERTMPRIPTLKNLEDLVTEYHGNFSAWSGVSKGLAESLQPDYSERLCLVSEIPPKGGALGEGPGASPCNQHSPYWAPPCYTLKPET

[3] = molecular target: high affinity (IL2Ra/b/g) IL2 receptor on YT/STAT5-Luc/hIL2Ra reporter cells (human; human (human T/NK cell leukemia YT cell line)) (UniProt P01589); remark: listed apart in the source
[4] = molecular target: low affinity (IL2Rb/g) IL2 receptor on YT/STAT5-Luc/IL2Ra KO reporter cells (human (human T/NK cell leukemia YT cell line)) (UniProt P14784); remark: listed apart in the source

Chain of UniProt P01589 (P01589 22-272, chain 1 of 3): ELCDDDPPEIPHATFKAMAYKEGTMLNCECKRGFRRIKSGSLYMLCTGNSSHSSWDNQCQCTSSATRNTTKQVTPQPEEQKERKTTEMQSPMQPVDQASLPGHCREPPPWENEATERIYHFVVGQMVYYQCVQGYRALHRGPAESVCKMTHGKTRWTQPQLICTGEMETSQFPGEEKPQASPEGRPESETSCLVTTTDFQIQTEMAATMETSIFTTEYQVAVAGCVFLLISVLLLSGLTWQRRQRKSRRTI
Chain of UniProt P01589 (P14784 27-551, chain 2 of 3, further chain): as the sequence (P14784 27-551, chain 1 of 2) above
Chain of UniProt P01589 (P31785 23-369, chain 3 of 3, further chain): as the sequence (P31785 23-369, chain 2 of 2, further chain) above

| Molecule | EC50, STAT5-luciferase reporter assay, YT/Stat5-Luc/hIL2Ra cells (M (unit not given)) [1] | EC50, STAT5-luciferase reporter assay, YT/Stat5-Luc/IL2Ra KO cells [2] | also measured |
| --- | --- | --- | --- |
| IL2-Fc (REGN8189) (Fc fusion; in M (unit assumed)) | 1.69e-11 |  |  |
| IL2-Fc (REGN8189) (Fc fusion) |  | 0.542 nM |  |
| IL2(3m)-Fc (REGN8190) (Fc fusion) APTSSSTKKTQLQLEHLLLDLQMILNGINNYKNPKLTRMLTAKFAMPKKATELKHLQCLEEELKPLEEVLNGAQSKNFHLRPRDLISNINVIVLELKGSETTFMCEYADETATIVEFLNRWITFCQSIISTLTGGGGSESKYGPPCPPCPAPPVAGPSVFLFPPKPKDTLMISRTPEVTCVVVDVSQEDPEVQFNWYVDGVEVHNAKTKPREEQFNSTYRVVSVLTVLHQDWLNGKEYKCKVSNKGLPSSIEKTISKAKGQPREPQVYTLPPSQEEMTKNQVSLTCLVKGFYPSDIAVEWESNGQPENNYKTTPPVLDSDGSFFLYSRLTVDKSRWQEGNVFSCSVMHEALHNHYTQKSLSLSLGK |  |  | EC50, STAT5-luciferase reporter assay, YT/Stat5-Luc/hIL2Ra cells (M (unit not given)) [3]: 5.17e-11; fold less potency than IL2-Fc (REGN8189), STAT5-luciferase reporter assay, YT/STAT5-Luc/hIL2Ra cells [3]: 3 fold; EC50, STAT5-luciferase reporter assay, YT/Stat5-Luc/IL2Ra KO cells [4]: 0.628 nM |

Continued, in another order:

| EC50, STAT5-luciferase reporter assay, YT/Stat5-Luc/hIL2Ra cells (M (unit not given)) [1] | EC50, STAT5-luciferase reporter assay, YT/Stat5-Luc/IL2Ra KO cells [2] | Molecule | also measured |
| --- | --- | --- | --- |
| 1.65e-11 |  | IL2-mmh (REGN7183), monomeric human IL-2 with a C-terminal myc-myc-hexahistidine (mmh) tag (ligand; in M (unit assumed)) |  |
| 5.63e-10 | 0.847 nM | IL2(E68C)-mmh (REGN7184), dimeric human IL-2 (E68C) with a C-terminal myc-myc-hexahistidine (mmh) tag (ligand) | fold less potency than IL2-mmh (REGN7183), STAT5-luciferase reporter assay, YT/STAT5-Luc/hIL2Ra cells [1]: 34 fold |
|  | 0.622 nM | IL2-mmh (REGN7183), monomeric human IL-2 with a C-terminal myc-myc-hexahistidine (mmh) tag (ligand) |  |
